Source: PMC10840515

Key:
[1] = biological target: HLA-DR1 (HLA-DRA*0101, HLA-DRB1*0101) (human); assay: FP
[2] = biological target: HLA-DR1 (HLA-DRA*0101, HLA-DRB1*0101) (human); assay: ELISA
[3] = biological target: HLA-DR1 (HLA-DRA*0101, HLA-DRB1*0101) (human); assay: ELISA; remark: listed apart in the source

Substance | IC50 [1] | IC50 [2] | further results
E56-70 | > 10000 nM |  | 
N49-63 | 493 nM |  | 
N108-122 | > 10000 nM |  | 
N127-141 | > 10000 nM |  | 
N224-238 | 2770 nM |  | 
N328-342 | 4010 nM |  | 
ORF8 43-57 | 430 nM |  | 
S235-249 | 8130 nM |  | 
S339-353 | 5990 nM |  | 
S344-358 | > 10000 nM |  | 
S818-832 | > 10000 nM |  | 
S990-1004 | > 10000 nM |  | 
S1015-1029 | 7390 nM |  | 
SARS-CoV-2 Spike peptide S167-181 |  | > 10000 nM | 
SARS-CoV-2 Spike peptide S486-505 (Wuhan HU-1) |  | 3050 nM | IC50 [3]: 1950 nM
SARS-CoV-2 Spike peptide S511-530 |  | 2620 nM | 
SARS-CoV-2 Spike peptide S512-526 |  | 662 nM | 
SARS-CoV-2 Spike peptide S866-880 |  | 1150 nM | 
SARS-CoV-2 orf1ab (nsp3) peptide nsp3 1350-1364 |  | 140 nM | 
SARS-CoV-2 orf1ab (nsp14) peptide nsp14 6420-6434 |  | 541 nM | 
nsp6 3801-3815 | 1520 nM |  | 
nsp12 5019-5033 | 2890 nM |  | 
